Literature values as cited in article PMC6716120.

Target: hexon (Human adenovirus 5) (UniProt P04133)
Sequence (P04133 2-952): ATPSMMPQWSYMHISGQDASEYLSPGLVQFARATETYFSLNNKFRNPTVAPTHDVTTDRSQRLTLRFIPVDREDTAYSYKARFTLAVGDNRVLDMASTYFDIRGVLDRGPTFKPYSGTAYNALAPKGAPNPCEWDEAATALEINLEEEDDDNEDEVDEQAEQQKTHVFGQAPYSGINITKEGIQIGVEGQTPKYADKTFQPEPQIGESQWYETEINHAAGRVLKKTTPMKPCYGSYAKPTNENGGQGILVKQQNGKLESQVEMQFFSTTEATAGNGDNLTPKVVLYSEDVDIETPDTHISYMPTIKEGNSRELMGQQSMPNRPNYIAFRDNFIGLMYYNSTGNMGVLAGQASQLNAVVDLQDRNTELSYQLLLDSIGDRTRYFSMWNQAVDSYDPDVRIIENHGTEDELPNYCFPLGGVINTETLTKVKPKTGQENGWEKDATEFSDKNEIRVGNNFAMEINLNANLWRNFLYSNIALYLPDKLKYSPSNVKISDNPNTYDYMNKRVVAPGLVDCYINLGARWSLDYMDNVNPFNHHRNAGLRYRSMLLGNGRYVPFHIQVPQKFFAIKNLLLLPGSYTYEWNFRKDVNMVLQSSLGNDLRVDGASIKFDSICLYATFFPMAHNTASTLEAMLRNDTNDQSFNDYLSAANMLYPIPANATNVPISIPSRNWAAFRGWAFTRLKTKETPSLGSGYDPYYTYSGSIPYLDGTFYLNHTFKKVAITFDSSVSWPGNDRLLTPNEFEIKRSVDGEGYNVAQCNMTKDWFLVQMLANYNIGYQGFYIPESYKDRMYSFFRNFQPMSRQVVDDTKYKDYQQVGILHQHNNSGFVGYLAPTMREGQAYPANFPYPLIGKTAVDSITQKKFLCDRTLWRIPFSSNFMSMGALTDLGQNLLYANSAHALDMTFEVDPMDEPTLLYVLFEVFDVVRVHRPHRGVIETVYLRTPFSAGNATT

Sequence of coagulation factor X (P00742 41-488): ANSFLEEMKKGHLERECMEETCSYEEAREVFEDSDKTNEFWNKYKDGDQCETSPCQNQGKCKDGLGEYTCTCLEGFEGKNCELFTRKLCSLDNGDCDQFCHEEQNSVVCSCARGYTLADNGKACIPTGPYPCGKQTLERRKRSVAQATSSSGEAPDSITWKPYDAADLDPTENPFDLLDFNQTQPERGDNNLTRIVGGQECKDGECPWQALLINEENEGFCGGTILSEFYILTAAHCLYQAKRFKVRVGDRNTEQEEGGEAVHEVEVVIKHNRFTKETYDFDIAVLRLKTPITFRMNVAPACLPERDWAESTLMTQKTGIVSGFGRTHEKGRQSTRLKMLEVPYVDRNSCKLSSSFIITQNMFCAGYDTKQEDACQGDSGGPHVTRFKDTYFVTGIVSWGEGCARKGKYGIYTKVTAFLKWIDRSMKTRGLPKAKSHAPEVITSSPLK

Substance: coagulation factor X (from UniProt P00742)
- Kd: 2 nM
